Test [1] addresses T1, hIL-12 receptor signaling complex (hIL-12Rβ1 and hIL-12Rβ2) (human, UniProt P42701 24-662; Q99665 24-862). Put plainly: cell-based or functional assay.
The target of test [2] is T1, hIL-12 receptor signaling complex …. In words: cell-based or functional assay. The source holds these as a separate data set.

T1 sequence (Q99665 24-862, chain 2 of 2, other chains not shown): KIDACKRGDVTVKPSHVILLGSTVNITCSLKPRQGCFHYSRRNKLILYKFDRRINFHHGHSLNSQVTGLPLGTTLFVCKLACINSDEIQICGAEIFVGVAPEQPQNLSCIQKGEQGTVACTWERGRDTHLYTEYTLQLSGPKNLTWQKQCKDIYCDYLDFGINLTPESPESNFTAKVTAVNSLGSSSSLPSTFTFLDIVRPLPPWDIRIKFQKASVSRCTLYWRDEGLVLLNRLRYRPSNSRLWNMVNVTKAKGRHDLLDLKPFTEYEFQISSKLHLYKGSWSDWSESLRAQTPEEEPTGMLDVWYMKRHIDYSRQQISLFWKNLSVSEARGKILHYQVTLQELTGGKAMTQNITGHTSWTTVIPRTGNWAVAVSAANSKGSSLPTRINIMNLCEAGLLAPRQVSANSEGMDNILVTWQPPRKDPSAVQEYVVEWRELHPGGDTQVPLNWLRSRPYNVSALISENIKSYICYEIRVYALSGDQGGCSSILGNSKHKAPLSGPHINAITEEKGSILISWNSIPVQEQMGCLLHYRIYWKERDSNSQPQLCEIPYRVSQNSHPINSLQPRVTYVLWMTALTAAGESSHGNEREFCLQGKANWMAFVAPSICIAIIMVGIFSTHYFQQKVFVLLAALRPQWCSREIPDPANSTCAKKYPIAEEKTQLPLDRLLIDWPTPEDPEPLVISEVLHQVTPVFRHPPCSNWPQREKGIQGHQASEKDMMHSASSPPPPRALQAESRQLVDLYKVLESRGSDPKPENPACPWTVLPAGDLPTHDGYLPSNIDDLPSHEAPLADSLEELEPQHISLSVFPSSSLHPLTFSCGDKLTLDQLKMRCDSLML

B1: human IL12 mutein, hIL-12p40 E81A, F82T with hIL-12p35-8X His (ligand)
chain 1: IWELKKDVYVVELDWYPDAPGEMVVLTCDTPEEDGITWTLDQSSEVLGSGKTLTIQVKATGDAGQYTCHKGGEVLSHSLLLLHKKEDGIWSTDILKDQKEPKNKTFLRCEAKNYSGRFTCWWLTTISTDLTFSVKSSRGSSDPQGVTCGAATLSAERVRGDNKEYEYSVECQEDSACPAAEESLPIEVMVDAVHKLKYENYTSSFFIRDIIKPDPPKNLQLKPLKNSRQVEVSWEYPDTWSTPHSYFSLTFCVQVQGKSKREKKDRVFTDKTSATVICRKNASISVRAQDRYYSSSWSEWASVPCS
chain 2: RNLPVATPDPGMFPCLHHSQNLLRAVSNMLQKARQTLEFYPCTSEEIDHEDITKDKTSTVEACLPLELTKNESCLNSRETSFITNGSCLASRKTSFMMALCLSSIYEDLKMYQVEFKTMNAKLLMDPKRQIFLDQNMLAVIDELMQALNFNSETVPQKSSLEEPDFYKTKIKLCILLHAFRIRAVTIDRVMSYLNASGSHHHHHHHH
In the case of B1, in test [1], the “pSTAT4 [gMFI] EC50, CD8+ T Cells” value was 4.5 nM; the “pSTAT4 [gMFI] EC50, CD56hi NK Cells” value is 10.3 nM; the “pSTAT4 [gMFI] Emax, CD8+ T Cells” value is 101000 gMFI; the “pSTAT4 [gMFI] Emax, CD56hi NK Cells” value amounted to 29300 gMFI. In addition, in test [2], the “pSTAT4 [%+] EC50, CD8+ T Cells” value is 0.87 nM; the “pSTAT4 [%+] EC50, CD56hi NK Cells” value was found to be 1.9 nM; the “pSTAT4 [%+] Emax, CD8+ T Cells” value was determined as 81.2 %+; the “pSTAT4 [%+] Emax, CD56hi NK Cells” value stood at 88.2 %+.

B2: human IL12 mutein, hIL-12p40 E81A, F82W with hIL-12p35-8X His (ligand)
chain 1: IWELKKDVYVVELDWYPDAPGEMVVLTCDTPEEDGITWTLDQSSEVLGSGKTLTIQVKAWGDAGQYTCHKGGEVLSHSLLLLHKKEDGIWSTDILKDQKEPKNKTFLRCEAKNYSGRFTCWWLTTISTDLTFSVKSSRGSSDPQGVTCGAATLSAERVRGDNKEYEYSVECQEDSACPAAEESLPIEVMVDAVHKLKYENYTSSFFIRDIIKPDPPKNLQLKPLKNSRQVEVSWEYPDTWSTPHSYFSLTFCVQVQGKSKREKKDRVFTDKTSATVICRKNASISVRAQDRYYSSSWSEWASVPCS
chain 2: RNLPVATPDPGMFPCLHHSQNLLRAVSNMLQKARQTLEFYPCTSEEIDHEDITKDKTSTVEACLPLELTKNESCLNSRETSFITNGSCLASRKTSFMMALCLSSIYEDLKMYQVEFKTMNAKLLMDPKRQIFLDQNMLAVIDELMQALNFNSETVPQKSSLEEPDFYKTKIKLCILLHAFRIRAVTIDRVMSYLNASGSHHHHHHHH
With B2, in test [1], the “pSTAT4 [gMFI] EC50, CD8+ T Cells” value was determined as 1.22 nM; the “pSTAT4 [gMFI] EC50, CD56hi NK Cells” value came to 1.82 nM; the “pSTAT4 [gMFI] Emax, CD8+ T Cells” value was found to be 111000 gMFI; the “pSTAT4 [gMFI] Emax, CD56hi NK Cells” value turned out to be 30700 gMFI. Also, in test [2], the “pSTAT4 [%+] EC50, CD8+ T Cells” value was found to be 0.29 nM; the “pSTAT4 [%+] EC50, CD56hi NK Cells” value came out at 0.39 nM; the “pSTAT4 [%+] Emax, CD8+ T Cells” value was 84.1 %+; the “pSTAT4 [%+] Emax, CD56hi NK Cells” value amounted to 88.4 %+.

B3: human IL12 mutein, hIL-12p40 E81A, F82R with hIL-12p35-8X His (ligand)
chain 1: IWELKKDVYVVELDWYPDAPGEMVVLTCDTPEEDGITWTLDQSSEVLGSGKTLTIQVKARGDAGQYTCHKGGEVLSHSLLLLHKKEDGIWSTDILKDQKEPKNKTFLRCEAKNYSGRFTCWWLTTISTDLTFSVKSSRGSSDPQGVTCGAATLSAERVRGDNKEYEYSVECQEDSACPAAEESLPIEVMVDAVHKLKYENYTSSFFIRDIIKPDPPKNLQLKPLKNSRQVEVSWEYPDTWSTPHSYFSLTFCVQVQGKSKREKKDRVFTDKTSATVICRKNASISVRAQDRYYSSSWSEWASVPCS
chain 2: RNLPVATPDPGMFPCLHHSQNLLRAVSNMLQKARQTLEFYPCTSEEIDHEDITKDKTSTVEACLPLELTKNESCLNSRETSFITNGSCLASRKTSFMMALCLSSIYEDLKMYQVEFKTMNAKLLMDPKRQIFLDQNMLAVIDELMQALNFNSETVPQKSSLEEPDFYKTKIKLCILLHAFRIRAVTIDRVMSYLNASGSHHHHHHHH
Take B3: in test [1], the “pSTAT4 [gMFI] EC50, CD8+ T Cells” value is 5.54 nM; the “pSTAT4 [gMFI] EC50, CD56hi NK Cells” value is 7.62 nM; the “pSTAT4 [gMFI] Emax, CD8+ T Cells” value turned out to be 101000 gMFI; the “pSTAT4 [gMFI] Emax, CD56hi NK Cells” value stood at 28000 gMFI. In test [2], the “pSTAT4 [%+] EC50, CD8+ T Cells” value worked out at 0.98 nM; the “pSTAT4 [%+] EC50, CD56hi NK Cells” value is 1.36 nM; the “pSTAT4 [%+] Emax, CD8+ T Cells” value was found to be 80.2 %+; the “pSTAT4 [%+] Emax, CD56hi NK Cells” value is 86.9 %+.

B4: human IL12 mutein, hIL-12p40 E81A, F82Y with hIL-12p35-8X His (ligand)
chain 1: IWELKKDVYVVELDWYPDAPGEMVVLTCDTPEEDGITWTLDQSSEVLGSGKTLTIQVKAYGDAGQYTCHKGGEVLSHSLLLLHKKEDGIWSTDILKDQKEPKNKTFLRCEAKNYSGRFTCWWLTTISTDLTFSVKSSRGSSDPQGVTCGAATLSAERVRGDNKEYEYSVECQEDSACPAAEESLPIEVMVDAVHKLKYENYTSSFFIRDIIKPDPPKNLQLKPLKNSRQVEVSWEYPDTWSTPHSYFSLTFCVQVQGKSKREKKDRVFTDKTSATVICRKNASISVRAQDRYYSSSWSEWASVPCS
chain 2: RNLPVATPDPGMFPCLHHSQNLLRAVSNMLQKARQTLEFYPCTSEEIDHEDITKDKTSTVEACLPLELTKNESCLNSRETSFITNGSCLASRKTSFMMALCLSSIYEDLKMYQVEFKTMNAKLLMDPKRQIFLDQNMLAVIDELMQALNFNSETVPQKSSLEEPDFYKTKIKLCILLHAFRIRAVTIDRVMSYLNASGSHHHHHHHH
Consider B4, for which, in test [1], the “pSTAT4 [gMFI] EC50, CD8+ T Cells” value was 0.37 nM; the “pSTAT4 [gMFI] EC50, CD56hi NK Cells” value was 1.19 nM; the “pSTAT4 [gMFI] Emax, CD8+ T Cells” value was 108000 gMFI; the “pSTAT4 [gMFI] Emax, CD56hi NK Cells” value came out at 35700 gMFI. For the same molecule, in test [2], the “pSTAT4 [%+] EC50, CD8+ T Cells” value came out at 90 pM; the “pSTAT4 [%+] EC50, CD56hi NK Cells” value was determined as 0.19 nM; the “pSTAT4 [%+] Emax, CD8+ T Cells” value amounted to 83.5 %+; the “pSTAT4 [%+] Emax, CD56hi NK Cells” value amounted to 91.7 %+.

B5: human IL12 mutein, hIL-12p40 E81A, F82V with hIL-12p35-8X His (ligand)
chain 1: IWELKKDVYVVELDWYPDAPGEMVVLTCDTPEEDGITWTLDQSSEVLGSGKTLTIQVKAVGDAGQYTCHKGGEVLSHSLLLLHKKEDGIWSTDILKDQKEPKNKTFLRCEAKNYSGRFTCWWLTTISTDLTFSVKSSRGSSDPQGVTCGAATLSAERVRGDNKEYEYSVECQEDSACPAAEESLPIEVMVDAVHKLKYENYTSSFFIRDIIKPDPPKNLQLKPLKNSRQVEVSWEYPDTWSTPHSYFSLTFCVQVQGKSKREKKDRVFTDKTSATVICRKNASISVRAQDRYYSSSWSEWASVPCS
chain 2: RNLPVATPDPGMFPCLHHSQNLLRAVSNMLQKARQTLEFYPCTSEEIDHEDITKDKTSTVEACLPLELTKNESCLNSRETSFITNGSCLASRKTSFMMALCLSSIYEDLKMYQVEFKTMNAKLLMDPKRQIFLDQNMLAVIDELMQALNFNSETVPQKSSLEEPDFYKTKIKLCILLHAFRIRAVTIDRVMSYLNASGSHHHHHHHH
On to B5, for which, in test [1], the “pSTAT4 [gMFI] EC50, CD8+ T Cells” value was found to be 4.33 nM; the “pSTAT4 [gMFI] EC50, CD56hi NK Cells” value was 17.2 nM; the “pSTAT4 [gMFI] Emax, CD8+ T Cells” value came to 102000 gMFI; the “pSTAT4 [gMFI] Emax, CD56hi NK Cells” value was 36800 gMFI. Also, in test [2], the “pSTAT4 [%+] EC50, CD8+ T Cells” value was 0.76 nM; the “pSTAT4 [%+] EC50, CD56hi NK Cells” value was 1.15 nM; the “pSTAT4 [%+] Emax, CD8+ T Cells” value came out at 80.9 %+; the “pSTAT4 [%+] Emax, CD56hi NK Cells” value turned out to be 89.3 %+.
